The conditions of this data set: Bos taurus, Thermal, DSC, NaCl 200 mM, reversible: yes, whole UniProt chain shown.
Where [1] appears, read: pH 4, Acetic acid-Sodium acetate 10 mM.
Where [2] appears, read: pH 5, Acetic acid-Sodium acetate 10 mM.

B1: Ribonuclease pancreatic wild type, P61823 (protein)
chain: MALKSLVLLSLLVLVLLLVRVQPSLGKETAAAKFERQHMDSSTSAASSSNYCNQMMKSRNLTKDRCKPVNTFVHESLADVQAVCSQKNVACKNGQTNCYQSYSTMSITDCRETGSSKYPNCAYKTTQANKHIIVACEGNPYVPVHFDASV
Take B1: the Tm was 44.6 °C under setting [1]; 45.5 °C under setting [2]; 46.8 °C (pH 6, MES 10 mM); 47.2 °C (pH 6.5, MES 10 mM); 50.1 °C (pH 7, MOPS 10 mM); 50.6 °C (pH 7.5, MOPS 10 mM). The “heat capacity change of unfolding” value under setting [1] was 1.24 kcal/mol/K; the “heat capacity change of unfolding” value under setting [2] stood at 1.2 kcal/mol/K; the “heat capacity change of unfolding” value (pH 6, MES 10 mM) worked out at 1.17 kcal/mol/K; the “heat capacity change of unfolding” value (pH 6.5, MES 10 mM) came to 1.22 kcal/mol/K; the “heat capacity change of unfolding” value (pH 7, MOPS 10 mM) stood at 1.22 kcal/mol/K; the “heat capacity change of unfolding” value (pH 7.5, MOPS 10 mM) came to 1.2 kcal/mol/K. Also, the “unfolding enthalpy (calorimetric)” value is, setting by setting: under setting [1], 94.5 kcal/mol; under setting [2], 95.7 kcal/mol; (pH 6, MES 10 mM) 98.1 kcal/mol; (pH 6.5, MES 10 mM) 99.3 kcal/mol; (pH 7, MOPS 10 mM) 103 kcal/mol; (pH 7.5, MOPS 10 mM) 104 kcal/mol. In addition, the “unfolding enthalpy (van 't Hoff)” value was found to be 98.1 kcal/mol under setting [1]; 96.9 kcal/mol under setting [2]; 100 kcal/mol (pH 6, MES 10 mM); 100 kcal/mol (pH 6.5, MES 10 mM); 102 kcal/mol (pH 7, MOPS 10 mM); 105 kcal/mol (pH 7.5, MOPS 10 mM).

The Tm is the temperature at which the thermal transition is half complete.

Values taken from FireProtDB (doi:10.1021/bi960855h).
